B1: 17 (protein)
chain: MTTRLRILTASLALLAANACAADAAPSTPHTVVLRAARMFDGASGKIVEHPQLTIVGNKIVRIAQGKEEDNRTGIPAGADVIDLGDATLLPGFIDAHVHLSGQSSDNWYGDFFDNMMRFPAEQALYGAYYARITLEAGFTSVRDVGSTDWIALGLRNAIDAGKVPGPRMLVSNYAVGSTGGHADQDPIPPQKLAPAGPLQGVCNGPEECRAAVRYQIKYGANVIKFMPSGGVLSLSDPVDAPELSQDEMNAVIGEAHAWGRKVAAHAHGDKAAKMAVTAGVDSIEHGSFLEDDTLRMMKAKGVYLVPTISAIAHVEEKIATFPSVIAEKGRAAASHSRQMFRHAVQIGVPIALGTDAGVGAHGTNAREFRYMVDNGLTPAQSLMAGTANAARLLGTFDRVGTLEAGKLADVVAVPGNPIADITVTERPVFVMKDGVVVRRGAVR
modifications: polypeptide 3
B2: 1 (protein)
chain: APAAPHTVVLRAARMFDGASGKLVDHPQLTIVGNKIVRIAQGDKAEVPAGAEVVDLGDATLLPGFIDAHVHLSGQSSDNWYGDFFDNMMRFPAEQALYGAYYARITLEAGFTSVRDVGSTDWVALGLRNAIDAGKVPGPRMLVSNYAVGSTGGHADQDPIPPHKLPLAGPLQGVCNGPEECRAAVRYQIKYGANVIKFMPSGGVLSLSDPVDAPELSQDEMNAVIGESHAWGRKVAAHAHGDKAAKMAVAAGVDSIEHGSFIEDDTLRAMKAKNVYLVPTISAIAHVEEKIGTFPPVIAEKGRAAAAHLRQTFRHAVQIGVPIALGTDAGVGAHGSNAREFRYMVENGLTPAQALLAGTANAARLLGTFDRVGTLEAGKLADVVAVPGNPIADITVTERPLFVMKDGVVVRRDAVR
modifications: polypeptide 1
B3: 369 (protein)
chain: MRTRTRILTASLALLAANAWAADAMPSTPHTVVLRAARMFDGASGKLVEHPQLTIVGNKIVRVAQDDKAAVPAGADVIDLGDATLLPGFIDAHVHLSGQSSDNWYGDFFDNMMRFPAEQALYGAWYARITLEAGFTSVRDVGSTDWIALGLRNAIDAGKVPGPRMLVSNYAIGSTGGHADQDPIPPQKLAPAGPLQGVCNGPDECRAAVRYQIKYGANVIKFMPSGGVLSLSDPVDAPELTQEEMNAVVGEAHAWGRKVAAHAHGDKAAKMAVAAGVDSIEHGSFLEDDTLRMMKAKGVYLVPTISAVMHVEEKIATFPPVIAEKGRAAAAHVRQTFRHAVQIGVPIALGTDAGVGAHGTNAREFRYMVDNGMAPAQALLAGTSNAARLLGTIDRVGTLEAGKLADVVAVPGNPVADITVTERPVFVMKDGVVVRRGAVR
modifications: exemplary polypeptide
B4: 2 (protein)
chain: MYSLAIRNGIVFDGEKFIGKTNIYVDGDKIVKITNERLDAKEEVNAEGYFVMPGLIDAHLHLTGIRGGSLLMGYLLDDPRTRLLRAANWARELLMAGFTTVRDCGEPNSIILRNAINEGIIPGPRIIAAGSPITQTFGHAELSHSLPLEWSIQLGFGEICDGVDECIKAARKVLRSGADFIKIMATGGVLSERDRPEWPQLTPEEMSAIVREAEKVGTYVAAHAHGDKGARIAVEAGVRTIEHGSLITEETVKLMAEKGVSLTPTLSIQELIYKYGKQMGIDPWGLEKIGQVREGVINSIKLARKYGVMILAGTDLGFKTGLDIDMGKNWVEVKLLVELGGLSSEEALRAATGNASKMLRLNTGIIREGYLADIVLINGNPLENINDIARVSTVIKGGKVTVENGKLI
modifications: polypeptide 2

Assay: Thermostability assay: residual OTA detoxification activity after 10 min incubation at 45-99° C. (T50)
Type: physicochemical
Details: 0.1 mg/mL protein in 20 mM Tris-HCl pH 7.5, residual OTA detoxification activity relative to 4° C. reference aliquot
How it was run: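 Purified enzyme at 0.1 mg/mL in 20 mM Tris-HCl pH 7.5 was heated 10 min at 45–99 °C, then held at 4 °C. Residual OTA detoxification activity was expressed relative to an aliquot kept at 4 °C throughout; T50 is the temperature range giving 50% activity loss.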
With B1 the “T50 (temperature at which 50% of the initial activity was maintained)” value was 65-75 °C.
For B2, the “T50 (temperature at which 50% of the initial activity was maintained)” value was 65-75 °C.
For B3, the “T50 (temperature at which 50% of the initial activity was maintained)” value was 68 °C.
In the case of B4, the “T50 (temperature at which 50% of the initial activity was maintained)” value is reported as over 95 °C.

Assay: OTA detoxification activity assay (specific activity, fluorescence reduction ex/em 390/450 nm)
Type: biochemical
Details: pH 6.0; 37° C.; 200 ng/mL OTA; 100 mM sodium phosphate buffer
How it was run: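 Recombinant enzyme preparation with 200 ng/mL OTA in 100 mM sodium phosphate, at pH 6.0 and pH 7.5, 37° C. Degradation followed as the fall in fluorescence at ex/em 390/450 nm. Specific activity taken from the initial linear slope; one unit degrades 1 μmol OTA per min at a starting OTA of […].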
In the case of B1, the “Specific OTA detoxification activities in U/g at pH 6.0” value is reported as 11.65 U/g.
For B2, the “Specific OTA detoxification activities in U/g at pH 6.0” value was 99.00 U/g.
With B3 the “Specific OTA detoxification activities in U/g at pH 6.0” value was 122.50 U/g.
In the case of B4, the “Specific OTA detoxification activities in U/g at pH 6.0” value is reported as 0.61 U/g.

Same assay, conditions: pH 7.5; 37° C.; 200 ng/mL OTA; 100 mM sodium phosphate buffer
For B1, the “Specific OTA detoxification activities in U/g at pH 7.5” value was 28.44 U/g.
In the case of B2, the “Specific OTA detoxification activities in U/g at pH 7.5” value is reported as 191.89 U/g.
In the case of B3, the “Specific OTA detoxification activities in U/g at pH 7.5” value is reported as 159.80 U/g.
In the case of B4, the “Specific OTA detoxification activities in U/g at pH 7.5” value is reported as 0.73 U/g.

— US20240352438A1, “MEANS AND METHODS FOR DETOXIFYING OCHRATOXIN A” (DSM Austria GmbH, priority 2021, published 2024)
